Values quoted from earlier work as cited in publication PMC9254699 (Biomaterials science, 2021).
Each block holds one molecule with its values, some of them ahead of it.

Legend:
[1] = target: T1, TGF-β1 (Homo sapiens, UniProt P01137)
[2] = target: T1, TGF-β1; remark: listed apart in the source

T1 sequence (P01137 279-390 limits assumed, species assumed): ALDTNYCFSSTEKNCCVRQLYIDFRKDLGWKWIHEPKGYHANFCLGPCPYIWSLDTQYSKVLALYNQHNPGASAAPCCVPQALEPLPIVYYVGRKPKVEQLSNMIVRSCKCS

activity against TGF-β1, preclinical anti-fibrotic [2]: activity against TGF-β1
B1: decorin: molecule with activity against TGF-β1, explored preclinically as anti-fibrotic (protein, UniProt P07585 31-359, looked up)
Decorin: DEASGIGPEVPDDRDFEPSLGPVCPFRCQCHLRVVQCSDLGLDKVPKDLPPDTTLLDLQNNKITEIKDGDFKNLKNLHALILVNNKISKVSPGAFTPLVKLERLYLSKNQLKELPEKMPKTLQELRAHENEITKVRKVTFNGLNQMIVIELGTNPLKSSGIENGAFQGMKKLSYIRIADTNITSIPQGLPPSLTELHLDGNKISRVDAASLKGLNNLAKLGLSFNSISAVDNGSLANTPHLRELHLDNNKLTRVPGGLAEHKYIQVVYLHNNNISVVGSSDFCPPGHNTKKASYSGVSLFSNPVQYWEIQPSTFRCVYVRSAIQLGNYK
direct binding to TGF-β1 or its receptors [1]: do not directly bind TGF-β1 or its receptors

activity against TGF-β1, preclinical anti-fibrotic [2]: activity against TGF-β1
B2: γ-interferon: molecule with activity against TGF-β1, explored preclinically as anti-fibrotic (protein, UniProt P01579 24-161, looked up)
Interferon gamma: QDPYVKEAENLKKYFNAGHSDVADNGTLFLGILKNWKEESDRKIMQSQIVSFYFKLFKNFKDDQSIQKSVETIKEDMNVKFFNSNKKKRDDFEKLTNYSVTDLNVQRKAIHELIQVMAELSPAAKTGKRKRSQMLFRG
direct binding to TGF-β1 or its receptors [1]: do not directly bind TGF-β1 or its receptors
